From a protein production outcome set (Wang et al. 2014)

Experiment: label from the status in PepcDB records
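Further: failed if final PepcDB status was selected cloned or expressed and not failed if soluble or beyond.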

MHIPDGIIPLWQCAVYWAVALINIGIFFYIFSKKPQKERRIVGTGLFAAAAAAVSSISVPSPFGVPVHFFLIPLAAILLGPLTAVIVATLCLVIQFFILGMGGLTSMGANILTMGIGLGVGTYAVYSVVSELDRSLAVFTATFFGIMVATVFHIMILLAAGVAGPEMLMATLIPFYIFVGVIEGAANIFIVSFLERMKPELTMMERV
protein production: failed

MKEFFKMFFASILGVITAGIILFCIFLFIFFGIVAGIASKATGGTIPKIEANSILHIDNSSFPEIVSANPWSMLTGKDESVSLSQAVEAIGQAKNNPNITGIFLDLDNLSVGMASAEELRRALQDFKMSGKFVVSYADRYTQKGYYLSSIADKLYLNPKGMLGLIGIATQTMFYKDALDKFGVKMEIFKVGTYKAAVEPFMLNRMSDANREQITTYINGLWDKITSDIAESRKTAMDSVKMFADKGEMFGLAEKAVEMKLVDELAYRTDVEKELKKMSQRGEKDELRFVSLSQVLANGPMNKTKGSRIAVLFAEGEITEEIIKKPFDTDGSSITQELAKEIKAAADDDDIKAVVLRVNSPGGSAFTSEQIWKQVADLKAKKPIVVSMGDVAASGGYYIACAANSIVAEHTTLTGSIGIFGMFPNFAGVAKKIGVNMDVVQTSKYADLGNTFAPMTVEDRALIQRYIEQGYDLFLTRVSEGRNRTKAQIDSIAQGRVWLGDKALALGLVDELGGLDTAIKRAAKLAQLGGNYSIEYGKTKRNFFEELLSSSAADMKSAILSTILSDPEIEVLRELRSMPPRPSGIQARLPYYFMPY
protein production: failed

MDIFLVVLVLLTIIAISNIVNRFIPFIPVPLIQVALGILAASFPQGLHFELNTELFFVLFIAPLLFNDGKRTPRAELWNLRAPILLLALGLVFATVIVGGYTIHWMIPAIPLAAAFGLAAILSPTDVVAVSALSGRVKMPKGILRLLEGEGLMNDASGLVAFKFAIAAAVTGAFSLAQAAVSFVFISLGGLLCGVVISFLIIRFRLFLRRLGMQDVTMHMLIQILTPFVIYLAAEEIGVSGILAVVAGGITHAVEQDRLESTMIKLQIVSSSTWNIILFILNGLVFVILGTQIPDVISVIFNDTAISNMKVIGYILVITFTLMLLRFLWVLFFWNGKWFFNKDQNIYKPGLRSTLLISISGVRGAVTLAGSFSIPYFLEDGTPFPERNLILFLAAGVILCTLVIATVVLPILTEKEEEDEERNKKLLTARRKLIKTALQTIKEDMNETNKTASLAVIAEYNEKMKNLRFQQYTSSNRIKKHERKVRAQGVKAEQEALMKMLERGDIPEETANVLQERFNELEILYANPFKVGLSKTRLKRLMYWIFFGEHKKPEMSILNEAGLIRATRVKTAKAAIEYLEKHKTDEHKEVFLSVITFYKQLIFRLEHSHHELKSSAHFENQKLEVKLKAVQAIRNEIQTLFEEREISRDISHELRQYINDVEAAMLEGGE
protein production: failed

MSSMYTTFAEQYDNVVQDNIYNAYLERPSLQAMLGDVNGCDVIDLGCGSGVYADYFIHRGVAKLTCIDYSPNMIEIVKRKFGDRVTAYAQDASIGLIKEASESADLIISPLMIHYLEDLSVLFNDVARVLKNGGNFAFSTHHPFADFECTLSGNYFEREFITEMWNTVGEPVEVTFYRRSLTEIMNAITDSGLVVTQLSEGKVAEEVKQISLEKYEYLSKNPNFIFIKCQKLV
protein production: failed

MIKILETESSLGWGGQENRTARLINHLDPTRFRVYVATPKDSELYKRRQEIRAEFFPVEMRKSYSLKAIWQLYKIIKKERIDIVSTHSGKDAWLGVIAARLAGVKAIRTRHLQTPISSPLSYNLHDKVVCVSDFVKEDLAKRGVQKGRLCTIHTGVDVSKYAPHREGILRRELGLREEEILVGIVAVLRGAKGHKLLLEAFAKLSSSTARLVIIGDGPQRENIALIVEQLNLQERVVMLGHREDVAKIMPDLDIFVLSSSMEALGTAILEASACGVAVLGSNVGGIPECVRENGQLFEAGDSDSLVKNLQALINDTSKRKERGAKGRVLVEEEFSVEAMVRKTEGLYREIITPQKILIVSNTALGDTILSTPLFRETRLALPKAHITALLNPVNAMLFETNPYLDKIELYGGRWRGFLGAWWKLWRRGFDVALLGHSNDPQITPLCLLLGISKIIKIPNHKNPWQRFHHNPPASPIEDQYAVLTRLLTLKYIGIESSNTRLELFLKEEWTTEAKEILRPFGQKKLIGIQMGASNRSRQWFVERWIELAKRIIERDEEVVIVFVGSKNELEEISLVAQALPQDRVFISAGRLSLGAAAALIGELGLLFTPDTGPLHIAVALRVKTISLFAVANPKNSLPDYDQSLHRYIKVDRCCEPCVGKRCAYQKCMEAIGVDEVYEEYKKLQE
protein production: failed

MISDIRKDAEVRMDKCVEAFKTQISKIRTGRASPSLLDGIVVEYYGTPTPLRQLASVTVEDSRTLKINVFDRSMSPAVEKAIMASDLGLNPNSAGSDIRVPLPPLTEERRKDLTKIVRGEAEQARVAVRNVRRDANDKVKALLKDKEISEDDDRRSQDDVQKLTDAAIKKIEAALADKEAELMQF
protein production: not failed
